# From patent US11248019B2, “Trityl-mono-GalNAc compounds and their use” (Hoffmann-La Roche Inc., priority 2016, dated 2022)
# Assays:
# Format in all cases: in vivo, C57BL6/J mice
# ApoB mRNA [1] = experiment: ApoB mRNA knockdown in liver and kidney by qPCR, single iv dose, sacrifice day 3 (Example 6)
# Protocol: (§1) ApoB mRNA knockdown was analyzed by qPCR. In brief, RNA was isolated from homogenized liver and kidney using MagnaPure RNA Isolation and purification system (catalog #03604721001 and #05467535001; Roche) according to the manufacturer's instructions. RT-QPCR was done using Taqman Fast Universal PCR Master Mix 2×(Applied Biosystems Cat #4364103) and Taqman gene expression assay (mApoB, Mn01545150_m1 and mGAPDH #4352339E) following the manufacturers protocol.
# (§2) Female C57BL6/J mice (5/group appr. 20 g at arrival) were injected intravenous (iv) with a single dose saline, 0.22 mg/kg, 0.45 mg/kg or 0.89 mg/kg, of GalNAc conjugated LNA antisense oligonucleotide (Compound H, I or J of the invention) or the naked reference compound F. Blood samples of 50 μl were collected pre-dosing at day minus 6. The animals were sacrificed at day 3. Total serum was collected as well as liver and kidney.
# [2] = Oligonucleotide content in liver and kidney by ELISA (Example 6); details: for Oligonucleotide content in kidney tissue / Oligonucleotide content in liver tissue: day 3
# Protocol: as §2
# The oligonucleotide content in the liver and kidney was measured using ELISA (see for example Straarup et al 2010 Nucleic Acid Res Vol 38 pp 7100-7111), results are shown in Table 11A and 11B.
# [3] = system: total cholesterol in serum; experiment: Total cholesterol in serum (Example 6); details: day 3
# Protocol: as §2
# Total cholesterol in serum was measured using ABX Pentra Cholesterol CP (Triolab, Brondby, Denmark) according to the manufacturer's instructions.
# ALT in serum (Example 6) = experiment: ALT in serum (Example 6)
# Protocol: as §2
# ALT (Alanine aminotransferase) was measured using ABX Pentra ALT CP reagent (A11A01627 Triolab, Brondby, Denmark. The results are shown in Table 13.
# ApoB mRNA [4] = experiment: ApoB mRNA knockdown in liver and kidney by qPCR, single iv dose 0.1 mg/kg, day 7 or 14 (Example 7); details: 0.1 mg/kg single iv dose
# Protocol: as §1
# (§3) Female C57BL6/J mice (5/group appr. 20 g at arrival) were injected intravenous (iv) with a single dose saline or 0.1 mg/kg of GalNAc conjugated LNA antisense oligonucleotide (Compound J, K, L, B or C of the invention or reference compound M). Blood samples of 50 μl were collected pre-dosing at day minus 6, and post dosing at day 3, 7, 10 and 14. The animals were sacrificed at day 7 or 14 and total serum was collected as well as liver and kidney.
# ApoB mRNA knock down was measured as described in example 4.
# [5] = Oligonucleotide content in liver and kidney by ELISA (Example 7); details: 0.1 mg/kg single iv dose
# Protocol: as §3
# The oligonucleotide content in the liver and kidney was measured using ELISA (see for example Straarup et al 2010 Nucleic Acid Res Vol 38 pp 7100-7111), results are shown in Table 16.
# ALT in serum (Example 7) = details: 0.1 mg/kg single iv dose
# Protocol: as §3
# ALT (Alanine aminotransferase) was measured using ABX Pentra ALT CP reagent (A11A01627 Triolab, Brondby, Denmark. The results are shown in table 17.
# ApoB mRNA [6] = experiment: ApoB mRNA knockdown in liver and kidney by qPCR, single sc dose, sacrifice day 10 (Example 4); details: for ApoB mRNA expression as % of saline, mRNA kidney: day 10, kidney; for ApoB mRNA expression as % of saline, mRNA liver: day 10, liver
# Protocol: (§4) Female C57BL6/J mice (5/group appr. 20 g at arrival) were injected subcutaneous (sc) with a single dose saline or 0.25 mg/kg unconjugated LNA-antisense oligonucleotide (compound F) or with 0.25 mg/kg or 0.1 mg/kg of GalNAc conjugated LNA antisense oligonucleotide (Compound C or E of the invention or reference compound G). Blood samples of 50 μl were collected pre-dosing at day minus 6, and post dosing at day 3 and 7. The animals were sacrificed at day 10 and total serum was collected as well as liver and kidney.
# as §1
# [7] = Oligonucleotide content in liver and kidney by ELISA (Example 4); details: for Oligonucleotide content, Kidney / Oligonucleotide content, Liver: day 10
# Protocol: as §4
# The oligonucleotide content in the liver and kidney was measured using ELISA (see for example Straarup et al 2010 Nucleic Acid Res Vol 38 pp 7100-7111), results are shown in Table 6.
substance,measurement,setting,value
5′-GS^mCSaStStSgSgStSaStSTS^mCSA-3′ [Compound J],ApoB mRNA expression as % of saline in kidney,ApoB mRNA [1]; 0.22 mg/kg single iv dose,117.0 % of saline
same,ApoB mRNA/mGAPDH expression as % of saline in liver,ApoB mRNA [1]; 0.22 mg/kg single iv dose,12.8 % of saline
same,ApoB mRNA expression as % of saline in kidney,ApoB mRNA [1]; 0.45 mg/kg single iv dose,90.7 % of saline
same,ApoB mRNA/mGAPDH expression as % of saline in liver,ApoB mRNA [1]; 0.45 mg/kg single iv dose,6.3 % of saline
same,ApoB mRNA expression as % of saline in kidney,ApoB mRNA [1]; 0.89 mg/kg single iv dose,64.1 % of saline
same,ApoB mRNA/mGAPDH expression as % of saline in liver,ApoB mRNA [1]; 0.89 mg/kg single iv dose,3.0 % of saline
same,ApoB knock down in the liver,"ApoB mRNA [1]; in words, single iv dose",improved ApoB knock down in the liver
same,Oligonucleotide content in kidney tissue,[2]; 0.22 mg/kg single iv dose,0.169 µg/g
same,Oligonucleotide content in liver tissue,[2]; 0.22 mg/kg single iv dose,0.313 µg/g
same,Oligonucleotide content in kidney tissue,[2]; 0.45 mg/kg single iv dose,0.549 µg/g
same,Oligonucleotide content in liver tissue,[2]; 0.45 mg/kg single iv dose,0.710 µg/g
same,Oligonucleotide content in kidney tissue,[2]; 0.89 mg/kg single iv dose,1.040 µg/g
same,Oligonucleotide content in liver tissue,[2]; 0.89 mg/kg single iv dose,1.478 µg/g
same,liver to kidney ratio compared to unconjugated (naked) oligonucleotide (compound F),"[2]; in words, tables 9 to 11",improved liver to kidney ratio
same,serum cholesterol percent of saline,[3]; 0.22 mg/kg single iv dose,37.3% of saline
same,serum cholesterol percent of saline,[3]; 0.45 mg/kg single iv dose,21.5% of saline
same,serum cholesterol percent of saline,[3]; 0.89 mg/kg single iv dose,10.0% of saline
same,serum cholesterol reduction,"[3]; in words, single iv dose",serum cholesterol reduction
same,ALT levels (U/L) in serum at day 3 as % of saline,ALT in serum (Example 6); 0.22 mg/kg single iv dose,101 % of saline
same,ALT levels (U/L) in serum at day 3 as % of saline,ALT in serum (Example 6); 0.45 mg/kg single iv dose,201 % of saline
same,ALT levels (U/L) in serum at day 3 as % of saline,ALT in serum (Example 6); 0.89 mg/kg single iv dose,1558 % of saline
same,ALT levels,"ALT in serum (Example 6); in words, highest dose (0.89 mg/kg)",some animals showed increase ALT levels
same,"ApoB mRNA/mGAPDH expression as % of saline, Avg kidney","ApoB mRNA [4]; Day 7, kidney",83.9 % of saline
same,"ApoB mRNA/mGAPDH expression as % of saline, Avg liver","ApoB mRNA [4]; Day 7, liver",56.0 % of saline
same,"ApoB mRNA/mGAPDH expression as % of saline, Avg kidney","ApoB mRNA [4]; Day 14, kidney",96.8 % of saline
same,"ApoB mRNA/mGAPDH expression as % of saline, Avg liver","ApoB mRNA [4]; Day 14, liver",107.6 % of saline
same,"Oligonucleotide content, Avg kidney","[5]; Day 7, kidney tissue",0.153 µg/g
same,"Oligonucleotide content, Avg liver","[5]; Day 7, liver tissue",0.276 µg/g
same,"Oligonucleotide content, Avg kidney","[5]; Day 14, kidney tissue",0.079 µg/g
same,"Oligonucleotide content, Avg liver","[5]; Day 14, liver tissue",0.163 µg/g
same,ALT levels (U/L) in serum as % of saline,ALT in serum (Example 7); Day 7,128.6 % of saline
same,ALT levels (U/L) in serum as % of saline,ALT in serum (Example 7); Day 14,126.1 % of saline
5′-GS^mCSaStStSgSgStSaStSTS^mCSAOcOa-3′ [E],"ApoB mRNA expression as % of saline, mRNA kidney",ApoB mRNA [6]; 0.1 mg/kg single sc dose,84.8 % of saline
same,"ApoB mRNA expression as % of saline, mRNA liver",ApoB mRNA [6]; 0.1 mg/kg single sc dose,60.5 % of saline
same,"ApoB mRNA expression as % of saline, mRNA kidney",ApoB mRNA [6]; 0.25 mg/kg single sc dose,51.0 % of saline
same,"ApoB mRNA expression as % of saline, mRNA liver",ApoB mRNA [6]; 0.25 mg/kg single sc dose,34.9 % of saline
same,knock down of ApoB mRNA compared to the GalNAc2 cluster conjugated LNA oligonucleotide (compound G),"ApoB mRNA [6]; in words, high dose (0.25 mg/kg)",comparable
same,knock down of ApoB mRNA in the liver compared to unconjugated (naked) oligonucleotide (compound F),"ApoB mRNA [6]; in words, single sc dose, day 10",improved knock down
same,"Oligonucleotide content, Kidney",[7]; 0.1 mg/kg single sc dose,0.094 μg/g tissue
same,"Oligonucleotide content, Liver",[7]; 0.1 mg/kg single sc dose,0.021 μg/g tissue
same,"Oligonucleotide content, Kidney",[7]; 0.25 mg/kg single sc dose,0.243 μg/g tissue
same,"Oligonucleotide content, Liver",[7]; 0.25 mg/kg single sc dose,0.069 μg/g tissue
same,uptake in liver and kidney compared to the unconjugated oligonucleotide (compound F),[7]; in words,enhanced uptake in the liver and reduced uptake in the kidney
